According to article PMC6557900 (Nature Communications, 2019):
Where no end group is shown, it is not given here. [ ]: non-standard residue; d: D form. pY = N[C@@H](Cc1ccc(OP(=O)(O)O)cc1)C(=O)O

How the values were obtained:
Conditions in all cases: both partners purified
[1] = target: T1, SOCS2-ElonginB-ElonginC complex, wild-type (human | , UniProt O14508 32-198; Q15370 1-104; Q15369 17-112); assay: 19F ligand-observed CPMG NMR displacement assay; peptide (GHR 10 μM, EpoR 50 μM) displaces the fluorinated pY analog spy molecule 3 (100 μM) from SBC (5 μM); 20 mM HEPES pH 8, 50 mM NaCl, 1 mM DTT, 20% D2O, 298 K
T1 sequence (O14508 32-198, chain 1 of 3): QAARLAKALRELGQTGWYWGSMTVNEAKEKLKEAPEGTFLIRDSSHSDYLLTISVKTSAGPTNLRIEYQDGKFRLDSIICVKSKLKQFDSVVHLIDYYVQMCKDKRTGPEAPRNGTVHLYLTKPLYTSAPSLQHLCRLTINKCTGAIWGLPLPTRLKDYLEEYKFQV
T1 sequence (Q15370 1-104, chain 2 of 3): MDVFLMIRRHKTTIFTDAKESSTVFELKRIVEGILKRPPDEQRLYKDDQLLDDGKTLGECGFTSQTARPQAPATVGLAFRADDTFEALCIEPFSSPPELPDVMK
T1 sequence (Q15369 17-112, chain 3 of 3): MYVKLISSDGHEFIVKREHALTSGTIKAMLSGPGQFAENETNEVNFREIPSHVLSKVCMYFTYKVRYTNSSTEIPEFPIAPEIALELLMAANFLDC

[2] = target: T1, SOCS2-ElonginB-ElonginC complex, …; assay: SPR; biotinylated SBC (wild-type or mutant) immobilised, peptide injected at 0.08-60 μM; 20 mM HEPES pH 7.5, 150 mM NaCl, 1 mM TCEP, 0.005% Tween20, 10 °C; steady-state affinity, 1:1 model
[3] = target: T2, SOCS2-ElonginB-ElonginC complex, wild-type (human | , UniProt O14508 32-198; Q15370 1-104; Q15369 17-112); assay: ITC; peptide (750 or 1500 μM) titrated into SBC (50 μM); 100 mM HEPES pH 7.5, 50 mM NaCl, 0.5 mM TCEP, 298 K; one-set-of-site model
T2 construct: Untagged in ITC and NMR; also called SBC; wild-type SBC; source: E. coli BL21(DE3), co-expressed, purified (HisTrap, TEV cleavage, second HisTrap, SEC Superdex 75); not shown: His6, N-terminal, cleaved; copies: + +
T2 sequence (O14508 32-198, chain 1 of 3): as the sequence (O14508 32-198, chain 1 of 3) above
T2 sequence (Q15370 1-104, chain 2 of 3): as the sequence (Q15370 1-104, chain 2 of 3) above
T2 sequence (Q15369 17-112, chain 3 of 3): as the sequence (Q15369 17-112, chain 3 of 3) above

[4] = target: T2, SOCS2-ElonginB-ElonginC complex, …; assay: SPR; biotinylated SBC (wild-type or mutant) immobilised, peptide injected at 0.08-60 μM; 20 mM HEPES pH 7.5, 150 mM NaCl, 1 mM TCEP, 0.005% Tween20, 10 °C; steady-state affinity, 1:1 model
[5] = target: T3, SOCS2(C133Y)-ElonginB-ElonginC complex (human | , UniProt O14508 32-198; Q15370 1-104; Q15369 17-112, C133Y); assay: as above
T3 construct: also called SBC C133Y; source: E. coli BL21(DE3), co-expressed, purified (as wild-type SBC); not shown: His6, N-terminal, cleaved; copies: + +

[6] = target: T4, SOCS2(L106V)-ElonginB-ElonginC complex (human | , UniProt O14508 32-198; Q15370 1-104; Q15369 17-112, L106V); assay: as above
T4 construct: also called SBC L106V; source: E. coli BL21(DE3), co-expressed, purified (as wild-type SBC); not shown: His6, N-terminal, cleaved; copies: + +
T4 sequence (O14508 32-198 L106V, chain 1 of 3): as the sequence (O14508 32-198, chain 1 of 3) above, with L75V counted along it
T4 sequence (Q15370 1-104, chain 2 of 3): as the sequence (Q15370 1-104, chain 2 of 3) above
T4 sequence (Q15369 17-112, chain 3 of 3): as the sequence (Q15369 17-112, chain 3 of 3) above

T3 sequence (O14508 32-198 C133Y, chain 1 of 3): as the sequence (O14508 32-198, chain 1 of 3) above, with C102Y counted along it
T3 sequence (Q15370 1-104, chain 2 of 3): as the sequence (Q15370 1-104, chain 2 of 3) above
T3 sequence (Q15369 17-112, chain 3 of 3): as the sequence (Q15369 17-112, chain 3 of 3) above

B1: EpoR_pY426 peptide, alanine at pY(+6) (peptide)
chain: ASFE[pY]TILDPA-NH2
modifications: N-terminus assumed
SMILES: CC[C@H](C)[C@H](NC(=O)[C@@H](NC(=O)[C@H](Cc1ccc(OP(=O)(O)O)cc1)NC(=O)[C@H](CCC(=O)O)NC(=O)[C@H](Cc1ccccc1)NC(=O)[C@H](CO)NC(=O)[C@H](C)N)[C@@H](C)O)C(=O)N[C@@H](CC(C)C)C(=O)N[C@@H](CC(=O)O)C(=O)N1CCC[C@H]1C(=O)N[C@@H](C)C(N)=O
Ki [1]: 11.3 µM
Kd [2]: 16.4 µM

PYPD[pY]TSIHIV-NH2 [GHR_pY595 peptide V(−3)Y]
Ki [1]: 3.3 µM
Kd [2]: 3.3 µM

PVPD[pY]ASIHIV-NH2 [GHR_pY595 peptide, alanine at pY(+1)]
Ki [1]: 0.5 µM
Kd [2]: 1 µM

PVPD[pY]TSIHIA-NH2 [GHR_pY595 peptide, alanine at pY(+6)]
Kd [2]: 1.9 µM

PVPD[pY]TSIAIV-NH2 [GHR_pY595 peptide, alanine at pY(+4)]
Ki [1]: 18.5 µM
Kd [2]: 6.7 µM

B2: EpoR_pY426 peptide, alanine at pY(+1) (peptide)
chain: ASFE[pY]AILDPS-NH2
modifications: N-terminus assumed
SMILES: CC[C@H](C)[C@H](NC(=O)[C@H](C)NC(=O)[C@H](Cc1ccc(OP(=O)(O)O)cc1)NC(=O)[C@H](CCC(=O)O)NC(=O)[C@H](Cc1ccccc1)NC(=O)[C@H](CO)NC(=O)[C@H](C)N)C(=O)N[C@@H](CC(C)C)C(=O)N[C@@H](CC(=O)O)C(=O)N1CCC[C@H]1C(=O)N[C@@H](CO)C(N)=O
Ki [1]: 10.3 µM
Kd [2]: 17.1 µM

PAPD[pY]TSIHIV-NH2 [GHR_pY595 peptide, alanine at pY(−3)]
Ki [1]: 3.4 µM

ASFA[pY]TILDPS-NH2 [EpoR_pY426 peptide, alanine at pY(−1)]
Ki [1]: 23.5 µM
Kd [2]: 21.7 µM

ASFE[pY]TILDAS-NH2 [EpoR_pY426 peptide, alanine at pY(+5)]
Ki [1]: 6.9 µM
Kd [2]: 8.9 µM

ASFE[pY]TILAPS-NH2 [EpoR_pY426 peptide, alanine at pY(+4)]
Ki [1]: 14.1 µM
Kd [2]: 18 µM

ASFE[pY]TALDPS-NH2 [EpoR_pY426 peptide, alanine at pY(+2)]
Ki [1]: 17.2 µM
Kd [2]: 30.8 µM

PRPD[pY]TSIHIV-NH2 [GHR_pY595 peptide V(−3)R]
Ki [1]: 20.6 µM
Kd [2]: 9 µM

B3: GHR_pY487 phosphopeptide (growth hormone receptor) (peptide)
peptide: NIDF[pY]AQVSDI-NH2
notes: growth hormone receptor (GHR), 11-residue peptide around pY487; source: synthetic peptide (solid-phase, Fmoc, Rink amide resin), HPLC purified
Kd [3]: 2.3 µM
Kd [4]: 5.1 µM
Kd [5]: 7.7 µM
Kd [6]: 8.9 µM

PVPD[pY]TSAHIV-NH2 [GHR_pY595 peptide, alanine at pY(+3)]
Ki [1]: 3.4 µM
Kd [2]: 3.7 µM

ASFE[pY]TIADPS-NH2 [EpoR_pY426 peptide, alanine at pY(+3)]
Ki [1]: 20.4 µM
Kd [2]: 32.3 µM
